From paper PMC6195595
Each block holds one substance with its values, some of them ahead of it.

What was measured:
[1] = target: Kj12B-^NDD (N-terminal docking domain of Kj12B) (Xenorhabdus stockiae KJ12.1); assay: ITC; 50 µM ^NDD protein in the cell titrated with 1 mM ^CDD peptide or variant, 20 °C, 50 mM sodium phosphate pH 6.5, 100 mM NaCl, one site binding model, three independent titrations
[2] = target: Kj12B-NDD K26Q, K28E (Xenorhabdus stockiae KJ12.1); assay: ITC; 50 µM NDD (or Kj12C construct) in the cell titrated with 1 mM CDD peptide; 20 °C; 50 mM sodium phosphate pH 6.5, 100 mM NaCl; one site binding model; three independent titrations
[3] = target: Kj12C-NDD-Cterm (full-length Kj12C module) (Xenorhabdus stockiae KJ12.1); assay: as above
[4] = target: Kj12C-NDD Q26K, E28A (Xenorhabdus stockiae KJ12.1); assay: as above
[5] = target: Kj12B-NDD K24R, K26Q, K28E (Xenorhabdus stockiae KJ12.1); assay: as above
[6] = target: Kj12B-NDD K28E (Xenorhabdus stockiae KJ12.1); assay: as above
[7] = target: Kj12C-^NDD (N-terminal docking domain of Kj12C) (Xenorhabdus stockiae KJ12.1); assay: ITC; 50 µM ^NDD protein in the cell titrated with 1 mM ^CDD peptide or variant, 20 °C, 50 mM sodium phosphate pH 6.5, 100 mM NaCl, one site binding model, three independent titrations
[8] = target: Kj12B N-terminal docking domain (Xenorhabdus stockiae KJ12.1); assay: ITC; 50 µM NDD (or Kj12C construct) in the cell titrated with 1 mM CDD peptide; 20 °C; 50 mM sodium phosphate pH 6.5, 100 mM NaCl; one site binding model; three independent titrations
[9] = target: Kj12A-^NDD (N-terminal docking domain of Kj12A) (Xenorhabdus stockiae KJ12.1); assay: ITC; 50 µM ^NDD protein in the cell titrated with 1 mM ^CDD peptide or variant, 20 °C, 50 mM sodium phosphate pH 6.5, 100 mM NaCl, one site binding model, three independent titrations
[10] = target: Kj12C N-terminal docking domain (Xenorhabdus stockiae KJ12.1); assay: ITC; 50 µM NDD (or Kj12C construct) in the cell titrated with 1 mM CDD peptide; 20 °C; 50 mM sodium phosphate pH 6.5, 100 mM NaCl; one site binding model; three independent titrations
[11] = target: Kj12B thiolation domain with CDD (Xenorhabdus stockiae KJ12.1); assay: ITC; Kj12B T-domain-CDD in the cell (given as 50 mM) titrated with 1 mM Kj12C-NDD in the syringe; 20 °C; 50 mM sodium phosphate pH 6.5, 100 mM NaCl; one site binding model

Substance: Kj12B-^CDD peptide R1565E
Kd [1]: 13 µM

Substance: Kj12B-CDDshort peptide
Kd [2]: 20.4 µM
stoichiometry N [2]: 1 sites
Kd [3]: 8 µM
stoichiometry N [3]: 1 sites
Kd [4]: 80 µM
stoichiometry N [4]: 1 sites
stoichiometry N [5]: 0.97 sites
Kd [6]: 33 µM
stoichiometry N [6]: 1 sites

Substance: Kj12B-^CDD_(short) peptide
Kd [7]: 15 µM

Substance: Kj12A-^CDD peptide (C-terminal docking domain of Kj12A)
Kd [7]: 100 µM

Substance: Kj12B-CDDshort R1565E peptide
stoichiometry N [8]: 1.15 sites

Substance: Kj12A-^CDD peptide with E1169R and H1171E (double mutant)
Kd [7]: 3.5 µM

Substance: Kj12B-^CDD peptide (C-terminal docking domain of Kj12B)
Kd [7]: 8 µM
Kd [9]: 8 µM
Kd [1]: 62 µM

Substance: Kj12A-CDDshort E1169R, H1171E peptide
stoichiometry N [10]: 1.3 sites

Kd [11]: 19 µM
stoichiometry N [11]: 1.2 sites
Substance: Kj12C N-terminal docking domain (domain or fragment)
